The target of series [1] is OVOL2 C120Y C120Y (Mus musculus) (UniProt Q8CIV7). Description: EMSA. The settings on record: 1 nM probe; 53 ng or 1.7 ug protein; severely impaired; EMSA: 1 nM 5'-biotin DNA probe, room temperature, 30 min (1 h for Fig. 7E), LightShift Chemiluminescent EMSA Kit; specific competitor 4.5 uM where used …. Background: In EMSA bound probe runs differently from free probe, usually more slowly.

A further series concerns the target OVOL2 WT (Mus musculus) (UniProt Q8CIV7). Description: EMSA. The settings on record: 1 nM probe; 53 ng protein; EMSA: 1 nM 5'-biotin DNA probe, room temperature, 30 min (1 h for Fig. 7E), LightShift Chemiluminescent EMSA Kit; specific competitor 4.5 uM where used ….

In the case of “AACCGTTACC (double strand) [OVOL2 probe]”, the binding signal (relative to WT = 128) in series [1] is 1. Also, the binding signal (fold (WT:C120Y DNA binding ability)) in the series with OVOL2 WT (Mus musculus) was determined as 128.

These data come from article PMC10682436.
